Measured values published in paper doi:10.1101/2021.10.01.462734.
Values joined by “and” are separate entries in the source; they are usually repeats but may differ in a detail not shown here. Identical values can stand only once.

Columns and labels:
[1] = target: ancGR2-LBD Y545C mutant, DEX-bound; assay: cross-linking
[2] = target: ancGR2-LBD Y545C mutant, DEX-bound; assay: SPR
[3] = target: GFP-mGR Y545A (mouse); assay: number and brightness
[4] = target: ancGR2-LBD (ancient variant of the glucocorticoid receptor ligand-binding domain), wild type, DEX-bound; assay: cross-linking
[5] = target: ancGR2-LBD (ancient variant of the glucocorticoid receptor ligand-binding domain), wild type, DEX-bound; assay: SPR
[6] = target: GFP-mGR GR^dim/Y545A double mutant (mouse); assay: number and brightness

“ancGR2-LBD Y545C mutant, DEX-bound (domain or fragment)” showed a stoichiometry N [1] of 2 and a kD1 (multisite model, first binding site) [2] of 0.8 µM.

Work on GFP-mGR Y545A (natural protein) yielded a stoichiometry N [3] of 4.

In the case of “ancGR2-LBD (ancient variant of the glucocorticoid receptor ligand-binding domain), wild type, DEX-bound (domain or fragment)”, the stoichiometry N [4] is reported as 2 and 4, the Kd [5] is reported as 15.3 µM and the kD1 (multisite model, first of two independent binding sites) [5] is reported as 2.2 µM. It also gave a kD2 (multisite model, second of two independent binding sites) [5] of 27.9 µM.

Substance “GFP-mGR GR^dim/Y545A double mutant (natural protein)” has a stoichiometry N [6] of 3.
